Article PMC12311003, “Biochemical characterization of a novel purified lectin extracted from Pleurotus ostreatus mushroom for its antiviral activity” (Scientific Reports, 2025)

Columns and labels:
[1] = target: scavenger receptor class B-type I (SR-B1) (UniProt Q8WTV0); assay: AlphaScreen or HTRF
[2] = target: CD81 (human (endogenous in PBMCs)) (UniProt P60033); assay: flow cytometry on cells; 1 x 10^6 PBMCs incubated 2 h with 12.5 µM POL, then anti-CD81-FITC antibody at 4 °C for 30 min; binding taken from the fall in unbound CD81
HCV NS3/NS4A protease = HCV NS3/NS4A protease (Hepatitis C virus (isolate BK), UniProt P26663); details: NS4A/NS4B-derived fluorogenic peptide substrate, 30 min, 37 °C; used as comparator drug
HBV polymerase = target: T1, HBV polymerase (Hepatitis B virus ayw/Japan/JYW796/1988, UniProt Q9QMI1); assay: [3H]TTP incorporation, scintillation counting; assay type: biochemical
T1 construct: gene P
T1 sequence (Q9QMI1 whole entry): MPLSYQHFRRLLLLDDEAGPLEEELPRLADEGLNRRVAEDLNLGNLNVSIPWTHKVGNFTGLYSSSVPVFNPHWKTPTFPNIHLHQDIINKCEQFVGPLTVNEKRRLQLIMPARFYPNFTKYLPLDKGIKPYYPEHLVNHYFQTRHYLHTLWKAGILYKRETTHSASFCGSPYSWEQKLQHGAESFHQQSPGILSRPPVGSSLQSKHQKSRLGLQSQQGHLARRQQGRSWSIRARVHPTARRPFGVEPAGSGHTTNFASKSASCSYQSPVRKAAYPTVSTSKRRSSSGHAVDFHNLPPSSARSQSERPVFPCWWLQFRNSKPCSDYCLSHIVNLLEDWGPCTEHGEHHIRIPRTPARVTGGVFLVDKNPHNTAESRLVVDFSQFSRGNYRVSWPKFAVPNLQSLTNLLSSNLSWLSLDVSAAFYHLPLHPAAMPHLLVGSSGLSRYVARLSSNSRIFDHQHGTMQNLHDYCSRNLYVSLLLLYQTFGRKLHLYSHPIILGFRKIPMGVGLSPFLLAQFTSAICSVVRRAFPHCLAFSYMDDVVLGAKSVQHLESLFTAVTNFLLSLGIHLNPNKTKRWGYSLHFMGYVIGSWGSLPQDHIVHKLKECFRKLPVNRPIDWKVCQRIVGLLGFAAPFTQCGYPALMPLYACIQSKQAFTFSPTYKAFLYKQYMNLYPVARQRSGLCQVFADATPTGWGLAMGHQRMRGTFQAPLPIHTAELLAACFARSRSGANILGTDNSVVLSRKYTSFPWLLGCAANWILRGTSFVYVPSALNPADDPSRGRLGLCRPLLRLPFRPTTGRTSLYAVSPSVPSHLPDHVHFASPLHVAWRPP

Sequence of scavenger receptor class B-type I (SR-B1) (Q8WTV0 whole entry): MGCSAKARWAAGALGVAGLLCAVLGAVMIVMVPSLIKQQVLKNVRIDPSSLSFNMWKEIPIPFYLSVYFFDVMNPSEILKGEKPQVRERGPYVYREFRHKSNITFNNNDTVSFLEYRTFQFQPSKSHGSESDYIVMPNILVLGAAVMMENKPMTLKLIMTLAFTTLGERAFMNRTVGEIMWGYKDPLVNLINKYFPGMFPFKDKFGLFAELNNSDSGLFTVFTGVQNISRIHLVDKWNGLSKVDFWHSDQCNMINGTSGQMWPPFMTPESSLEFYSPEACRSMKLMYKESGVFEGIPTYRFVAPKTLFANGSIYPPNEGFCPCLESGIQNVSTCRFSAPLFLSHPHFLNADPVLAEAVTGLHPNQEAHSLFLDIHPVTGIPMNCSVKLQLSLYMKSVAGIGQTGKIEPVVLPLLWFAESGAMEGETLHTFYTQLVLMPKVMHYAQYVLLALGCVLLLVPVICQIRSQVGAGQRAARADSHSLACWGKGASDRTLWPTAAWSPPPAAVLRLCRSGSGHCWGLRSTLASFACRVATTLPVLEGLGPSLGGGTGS
Sequence of CD81 (human (endogenous in PBMCs)) (P60033 whole entry): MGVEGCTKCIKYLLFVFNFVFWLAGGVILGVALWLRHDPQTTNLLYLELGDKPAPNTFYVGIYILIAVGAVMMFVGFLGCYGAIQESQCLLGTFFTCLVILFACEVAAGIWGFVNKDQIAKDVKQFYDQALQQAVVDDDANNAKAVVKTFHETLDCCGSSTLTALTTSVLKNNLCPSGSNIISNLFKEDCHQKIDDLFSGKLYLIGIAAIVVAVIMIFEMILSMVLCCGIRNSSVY
Sequence of HCV NS3/NS4A protease (P26663 1027-1657): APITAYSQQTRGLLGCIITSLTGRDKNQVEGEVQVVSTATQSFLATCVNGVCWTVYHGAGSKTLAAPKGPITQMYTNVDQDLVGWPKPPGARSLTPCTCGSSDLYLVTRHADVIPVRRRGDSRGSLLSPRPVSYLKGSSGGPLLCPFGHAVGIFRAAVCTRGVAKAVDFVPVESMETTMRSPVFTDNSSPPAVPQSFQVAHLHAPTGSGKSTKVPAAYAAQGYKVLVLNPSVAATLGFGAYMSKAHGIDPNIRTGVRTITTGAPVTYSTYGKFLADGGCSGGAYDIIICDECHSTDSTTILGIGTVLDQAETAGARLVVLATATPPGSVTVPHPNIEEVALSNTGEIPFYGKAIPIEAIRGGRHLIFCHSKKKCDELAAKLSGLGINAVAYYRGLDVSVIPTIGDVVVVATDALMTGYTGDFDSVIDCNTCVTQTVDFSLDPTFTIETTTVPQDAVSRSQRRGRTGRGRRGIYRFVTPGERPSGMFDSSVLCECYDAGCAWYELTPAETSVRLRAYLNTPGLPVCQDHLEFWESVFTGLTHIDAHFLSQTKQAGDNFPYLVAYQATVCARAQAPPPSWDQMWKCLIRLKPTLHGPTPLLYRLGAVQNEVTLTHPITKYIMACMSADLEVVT
Sequence of HCV NS3/NS4A protease (P26663 1658-1711): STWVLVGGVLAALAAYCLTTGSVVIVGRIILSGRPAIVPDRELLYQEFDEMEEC

**Q.** “Pleurotus ostreatus lectin (POL) (natural protein)” was tested. Which IC50 [1] did it give?
**A.** 10.1 nM

**Q.** And the Kd [1]?
**A.** 3.6 nM

**Q.** And the Ki [1]?
**A.** 3.03 nM

**Q.** And the percentage of binding to CD81 at 12.5 µM [2]?
**A.** 58.8%

**Q.** With `CC(C)OC(=O)[C@H](C)N[P@](=O)(OC[C@H]1O[C@@H](n2ccc(=O)[nH]c2=O)[C@](C)(F)[C@@H]1O)Oc1ccccc1` [SOF, sofosbuvir] as the compound, how does the IC50 (HCV NS3/NS4A protease) read?
**A.** 15.5 nM

**Q.** With `Nc1ccn([C@@H]2CS[C@H](CO)O2)c(=O)n1` [LAM, lamivudine] as the compound, how does the IC50 (HBV polymerase) read?
**A.** 6.52 nM
